{"source": "patent US20250313632A1", "key": {"[1]": {"biological_target": "human B7-H3 expressed on A375 tumor cells (human) (UniProt Q5ZPR3)", "test": "flow cytometry on A375 cells, MFI(PE); unit from the axis Conc (nM); fit value of a flat control curve"}, "[2]": {"biological_target": "human B7-H3 expressed on A375 tumor cells (human) (UniProt Q5ZPR3)", "test": "flow cytometry on A375 cells, MFI(647); unit from the axis Conc (nM); fit value of a flat control curve"}, "[3]": {"biological_target": "human B7-H3 expressed on A375 tumor cells (human) (UniProt Q5ZPR3)", "test": "flow cytometry on A375 cells, MFI(PE); unit from the axis Conc (nM); fit value of a flat control curve", "remark": "listed apart in the source"}, "[4]": {"biological_target": "human B7-H3 expressed on A375 tumor cells (human) (UniProt Q5ZPR3)", "test": "flow cytometry on A375 cells, MFI(PE); unit from the axis Conc (nM); fit value of a flat control curve", "remark": "listed apart in the source"}, "[5]": {"biological_target": "human B7-H3 expressed on A375 tumor cells (human) (UniProt Q5ZPR3)", "test": "flow cytometry on A375.S2 cells, MFI(647); unit from the axis Conc (nM); fit value of a flat control curve"}, "[6]": {"biological_target": "human B7-H3 expressed on A375 tumor cells (human) (UniProt Q5ZPR3)", "test": "flow cytometry on A375 cells, MFI(PE); unit from the axis Conc (nM)"}, "[7]": {"biological_target": "human B7-H3 protein (human) (UniProt Q5ZPR3)", "test": "Octet (BLI) epitope binning on captured human B7-H3; competitor 72D1D11"}, "[8]": {"biological_target": "human B7-H3 protein (human) (UniProt Q5ZPR3)", "test": "Octet (BLI) epitope binning on captured human B7-H3; competitor AHP05562"}, "[9]": {"biological_target": "human B7-H3 expressed on A375 tumor cells (human) (UniProt Q5ZPR3)", "test": "flow cytometry on A375.S2 cells, MFI(647); unit from the axis Conc (nM)"}, "[10]": {"biological_target": "human B7-H3 expressed on A375 tumor cells (human) (UniProt Q5ZPR3)", "test": "flow cytometry on A375 cells, MFI(PE); unit from the axis Conc (nM)", "remark": "listed apart in the source"}, "[11]": {"biological_target": "human B7-H3 protein (human) (UniProt Q5ZPR3)", "test": "Octet (BLI) epitope binning on captured human B7-H3; competitor CA84D"}, "[12]": {"biological_target": "human B7-H3 protein (human) (UniProt Q5ZPR3)", "test": "Octet (BLI) epitope binning on captured human B7-H3; competitor AHP06345"}, "[13]": {"biological_target": "human B7-H3 expressed on A375 tumor cells (human) (UniProt Q5ZPR3)", "test": "flow cytometry on A375 cells, MFI(PE); unit from the axis Conc (nM)", "remark": "listed apart in the source"}, "[14]": {"biological_target": "human B7-H3 expressed on A375 tumor cells (human) (UniProt Q5ZPR3)", "test": "flow cytometry on A375 cells, MFI(647); unit from the axis Conc (nM)"}, "[15]": {"biological_target": "human B7-H3 expressed on A375 tumor cells (human) (UniProt Q5ZPR3)", "test": "flow cytometry on A375 cells, MFI(PE); unit from the axis Conc (nM)", "remark": "listed apart in the source"}, "[16]": {"biological_target": "human B7-H3 expressed on A375 tumor cells (human) (UniProt Q5ZPR3)", "test": "flow cytometry on A375 cells, MFI(PE); unit from the axis Conc (nM)", "remark": "listed apart in the source"}, "[17]": {"biological_target": "human B7-H3 expressed on A375 tumor cells (human) (UniProt Q5ZPR3)", "test": "flow cytometry on A375 cells, MFI(PE); unit from the axis Conc(nM)"}, "[18]": {"biological_target": "human B7-H3 (4Ig) protein (his tag) (human) (UniProt Q5ZPR3)", "test": "SPR (Biacore T200), antibody captured on Protein A chip, B7-H3 injected, 1:1 model"}, "[19]": {"biological_target": "human B7-H3 expressed on A375 tumor cells (human) (UniProt Q5ZPR3)", "test": "flow cytometry on A375 cells, MFI(PE); unit from the axis Conc (nM)", "remark": "listed apart in the source"}, "[20]": {"biological_target": "human B7-H3 protein (human) (UniProt Q5ZPR3)", "test": "Octet (BLI) epitope binning on captured human B7-H3; competitor AHP06345 (self)"}}, "data": [{"molecule": "hIgG1 (antibody)", "values": [{"measurement": "EC50", "setting": "[1]", "result": 36, "unit": "nM"}, {"measurement": "EC50", "setting": "[2]", "result": 0.066, "unit": "nM"}, {"measurement": "EC50", "setting": "[3]", "result": 2.1, "unit": "nM"}, {"measurement": "EC50", "setting": "[4]", "result": 192, "unit": "nM"}, {"measurement": "EC50", "setting": "[5]", "result": 0.044, "unit": "nM"}]}, {"molecule": "MGA017 (antibody, from a related filing, V domains shown) VH: EVQLVESGGGLVKPGGSLRLSCAASGFTFSSYGMSWVRQAPGKGLEWVATINSGGSNTYYPDSLKGRFTISRDNAKNSLYLQMNSLRAEDTAVYYCARHDGGAMDYWGQGTTVTVSS VL: DIQMTQSPSSLSASVGDRVTITCRASESIYSYLAWYQQKPGKAPKLLVYNTKTLPEGVPSRFSGSGSGTDFTLTISSLQPEDFATYYCQHHYGTPPWTFGQGTRLEIK", "values": [{"measurement": "EC50", "setting": "[6]", "result": 0.3, "unit": "nM"}, {"measurement": "inhibition ratio", "setting": "[7]", "result": 98.9, "unit": "%"}, {"measurement": "inhibition ratio", "setting": "[8]", "result": 91.5, "unit": "%"}, {"measurement": "EC50", "setting": "[9]", "result": 0.37, "unit": "nM"}, {"measurement": "EC50", "setting": "[10]", "result": 0.26, "unit": "nM"}, {"measurement": "inhibition ratio", "setting": "[11]", "result": 3.65, "unit": "%"}, {"measurement": "inhibition ratio", "setting": "[12]", "result": -0.09, "unit": "%"}, {"measurement": "EC50", "setting": "[13]", "result": 0.34, "unit": "nM"}, {"measurement": "EC50", "setting": "[14]", "result": 0.41, "unit": "nM"}, {"measurement": "EC50", "setting": "[15]", "result": 0.28, "unit": "nM"}, {"measurement": "EC50", "setting": "[16]", "result": 0.19, "unit": "nM"}, {"measurement": "EC50", "setting": "[17]", "result": 0.15, "unit": "nM"}, {"measurement": "Kd", "setting": "[18]", "result": 1.79, "unit": "nM"}, {"measurement": "koff", "setting": "[18]", "result": 0.00132, "unit": "s⁻¹"}, {"measurement": "kon", "setting": "[18]", "result": 737000, "unit": "M⁻¹ s⁻¹"}, {"measurement": "EC50", "setting": "[19]", "result": 0.22, "unit": "nM"}]}, {"molecule": "AHP06345 (antibody, V domains shown) VH: QVQLVQSGAEVKKPGESLRISCKGSGYSFTSYWISWVRQMPGKGLEWMGRIDPSDSYTNYSPSFQGHVTISADKSISTAYLQWSSLKASDTAMYYCARHTGYYGSGIGMDVWGQGTLVTVSS VL: HVILTQPPSVSAAPGQKVTISCSGSSSNIGNNYVSWYRQLPGTAPKLLIYDNNQRPSGIPDRFSGSKSGTSATLGITGLQTGDEADYYCATWDSSLGVVVFGGRTKLTVL", "values": [{"measurement": "inhibition ratio", "setting": "[8]", "result": -6.36, "unit": "%"}, {"measurement": "inhibition ratio", "setting": "[11]", "result": -3.77, "unit": "%"}, {"measurement": "inhibition ratio", "setting": "[20]", "result": 91.8, "unit": "%"}, {"measurement": "EC50", "setting": "[17]", "result": 2.7, "unit": "nM"}, {"measurement": "Kd", "setting": "[18]", "result": 1.47, "unit": "nM"}, {"measurement": "koff", "setting": "[18]", "result": 0.000254, "unit": "s⁻¹"}, {"measurement": "kon", "setting": "[18]", "result": 173000, "unit": "M⁻¹ s⁻¹"}]}]}
